Values quoted from earlier work as cited in publication PMC9792189.

Target: SARS-CoV-2 S1/RBD (target in cited aptamer papers) (SARS-CoV-2) (UniProt P0DTC2)
Experiment: SPR
For “AAAGCCACAACGAGCTCGGGTGAAAGCAGTCCGTTGAGTAGGCTTGCGGCTGCGTGGCATATCGATT [SSapt1]”, the Kd is listed as 105 nM.
For “ACGGGTTTGGCGTCGGGCCTGGCGGGGGGATAGTGCGGT [MSA5T]”, the Kd is given as 10.1 nM.
For “ATTACCGATGGCTTGTTTGTAATGTAGGGTTCCGTCGGAT [Aptamer-2]”, the Kd is given as 27 nM.
For “CAGCACCGACCTTGTGCTTTGGGAGTGCTGGTCCAAGGGCGTTAATGGACA [CoV2-RBD-1C]”, the Kd is listed as 3.1 nM.
For GGGGTGGGGTAGTGGTATGGAGCG [XN-268s], the Kd is listed as 4.26 nM.
In the case of “TCGAGTGGCTTGTTTGTAATGTAGGGTTCCGGTCGTGGGT [Aptamer-1]”, the Kd is given as 28 nM.
For “TTCCGGTTAATTTATGCTCTACCCGTCCACCTACCGGAA [MSA1T]”, the Kd is listed as 2.8 nM.
For “TTCCGGTTAATTTATGCTCTACCCGTCCACCTACCGGAATTTTTTTTTTTTTTTTTTTTTTTTTTTTTTACGGGTTTGGCGTCGGGCCTGGCGGGGGGATAGTGCGGT [DSA1N5]”, the Kd is listed as 0.51 nM.
